# From article PMC13542264
# Legend:
# [1] = molecular target: His-gephyrin, rat gephyrin P1, wild type, full length (rat); assay: SEC; analytical Superose 6 increase 5/10, 4 °C, 50 mM Tris/HCl, 300 mM NaCl pH 7.4; protein reduced with 1 mM TCEP, also the oxidised peak collected and re-reduced
# [2] = molecular target: GCN4-GlyR, GCN4 receptor model for the glycine receptor β subunit; assay: co-sedimentation; sedimentation assay of in vitro phase separation: proteins mixed in 25 mM Tris pH 7.4, 150 mM NaCl, 10 min 25 °C, 17,000 x g 10 min 4 °C; pellet and supernatant on Coomassie gels; gephyrin oxidised or reduced
# [3] = molecular target: gephyrin, endogenous in mouse brain (mouse (endogenous in brain)) (UniProt Q8BUV3); assay: non-reducing SDS-PAGE and Western blot; brain lysates of mice perfused with NEM-containing PBS; SDS sample buffer with 5 mM DTT or without reductant; shows only multimers that survive SDS
stoichiometry N [1],percent of gephyrin in the pellet fraction [2],Substance,fractional abundance of multimeric gephyrin [3]
6,60%,"His-gephyrin, rat gephyrin P1, wild type, full length (natural protein)",–
–,–,"gephyrin, endogenous in mouse brain (from UniProt Q8BUV3 1-769) (natural protein)",20%
